B1: GFP-Rho3 (wild-type Rho3 fused to GFP) (natural protein, S. pombe, UniProt O13928 1-205, looked up)
chain: MSSCFGSKKKPIYRKIVILGDGAAGKTSLLNVFTKGYFPQVYEPTIFENYIHDIFVDGNSIELSLWDTAGQEEYDQLRSLSYSDTHVIMICFAVDSRDSLENVITKWLPEVSSNCPGVKLVLVALKCDLRGADEEQVDHSKIIDYEEGLAAAKKINAVRYLECSAKLNRGVNEAFTEAARVALAAQPRGTKDGADESHGTGCIIA
notes: Rho3, Rho-family small GTPase of S. pombe (SPAC23C4.08); complete open reading frame amplified from genomic DNA, first methionine as in the Sanger Institute database; The name GFP-Rho3 puts GFP at the N-terminus, but the methods say the ORF 'was ligated to the N-terminus of the GFP'; also called GFP-fused Rho3; source: S. pombe cells, overexpressed from the inducible nmt1 promoter, …
B2: GFP-Rho3E48V (effector domain mutant of Rho3 fused to GFP) (natural protein, S. pombe, UniProt O13928 1-205, looked up)
chain: MSSCFGSKKKPIYRKIVILGDGAAGKTSLLNVFTKGYFPQVYEPTIFVNYIHDIFVDGNSIELSLWDTAGQEEYDQLRSLSYSDTHVIMICFAVDSRDSLENVITKWLPEVSSNCPGVKLVLVALKCDLRGADEEQVDHSKIIDYEEGLAAAKKINAVRYLECSAKLNRGVNEAFTEAARVALAAQPRGTKDGADESHGTGCIIA
notes: Rho3 of S. pombe (SPAC23C4.08), complete open reading frame, Glu48 changed to Val by site-directed mutagenesis; Analogue of the budding yeast rho3-V51 mutant; also called Rho3EV; GFP-Rho3EV; source: S. pombe cells, overexpressed from the inducible nmt1 promoter, in lysate (pull-down); not shown: GFP (S65T), N-terminal, kept
B3: GFP-Rho3G22V (GTP-locked variant of Rho3 fused to GFP) (natural protein, S. pombe, UniProt O13928 1-205, looked up)
chain: MSSCFGSKKKPIYRKIVILGDVAAGKTSLLNVFTKGYFPQVYEPTIFENYIHDIFVDGNSIELSLWDTAGQEEYDQLRSLSYSDTHVIMICFAVDSRDSLENVITKWLPEVSSNCPGVKLVLVALKCDLRGADEEQVDHSKIIDYEEGLAAAKKINAVRYLECSAKLNRGVNEAFTEAARVALAAQPRGTKDGADESHGTGCIIA
notes: Rho3 of S. pombe (SPAC23C4.08), complete open reading frame, Gly22 changed to Val by site-directed mutagenesis; also called Rho3GV; GFP-Rho3GV; source: S. pombe cells, overexpressed from the inducible nmt1 promoter, in lysate (pull-down); not shown: GFP (S65T), N-terminal, kept

Experiments:
[1] = target: T1, Apm1-GST (purified full-length Apm1 fused to GST) (S. pombe, UniProt Q9HFE5 1-426); assay: affinity capillary electrophoresis; GFP-fused Rho3 sample migrating in 50 mM phosphate buffer pH 6.8 containing Apm1-GST at 100 µg/ml (control: GST-Rho3 at 100 µg/ml); 15 kV, 25°C, laser-induced fluorescence detection; migration time-shift = t(control) - t(affinity)
T1 construct: Apm1, µ1 subunit of the clathrin-associated adaptor protein-1 (AP-1) complex of fission yeast, full length; the methods give no details of the construct or its expression; also called GST-fused Apm1; µ1 subunit of the AP-1 complex; source: purified; not shown: GST, C-terminal, kept
T1 sequence (looked up): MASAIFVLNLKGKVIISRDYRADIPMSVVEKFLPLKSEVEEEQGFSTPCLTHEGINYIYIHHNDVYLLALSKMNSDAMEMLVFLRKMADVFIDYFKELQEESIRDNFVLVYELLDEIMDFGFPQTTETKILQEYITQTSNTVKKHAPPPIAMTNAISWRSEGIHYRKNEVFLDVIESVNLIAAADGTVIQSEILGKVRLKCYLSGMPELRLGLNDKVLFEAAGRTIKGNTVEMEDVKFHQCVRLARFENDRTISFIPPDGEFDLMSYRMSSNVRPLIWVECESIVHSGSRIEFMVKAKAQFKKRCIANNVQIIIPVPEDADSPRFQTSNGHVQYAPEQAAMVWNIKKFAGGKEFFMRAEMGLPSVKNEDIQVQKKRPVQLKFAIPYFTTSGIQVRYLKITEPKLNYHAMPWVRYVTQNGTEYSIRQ

[2] = target: T1, Apm1-GST (purified full-length Apm1 …); assay: affinity capillary electrophoresis; GFP-fused Rho3 sample migrating in 50 mM phosphate buffer pH 6.8 containing Apm1-GST at 200 µg/ml (control: GST-Rho3 at 200 µg/ml); 15 kV, 25°C, laser-induced fluorescence detection; migration time-shift = t(control) - t(affinity)

Row | Binder | migration time-shift [1] | migration time-shift [2]
1 | B1 | 0.45 min | 0.84 min
2 | B2 | 0.25 min | 0.82 min
3 | B3 | 1.33 min | 0.94 min
